Results from US20140127174A1 (ZEALAND PHARMA A S, published 2014).

Assays:
[1] = target: human glucagon-like peptide 1 receptor (GLP-1-R) (human, UniProt P43220 24-463); assay: cell-based or functional assay
[2] = target: human glucagon receptor (Glucagon-R) (human, UniProt P47871 26-477); assay: cell-based or functional assay

Chain of human glucagon-like peptide 1 receptor (GLP-1-R) (P43220 24-463): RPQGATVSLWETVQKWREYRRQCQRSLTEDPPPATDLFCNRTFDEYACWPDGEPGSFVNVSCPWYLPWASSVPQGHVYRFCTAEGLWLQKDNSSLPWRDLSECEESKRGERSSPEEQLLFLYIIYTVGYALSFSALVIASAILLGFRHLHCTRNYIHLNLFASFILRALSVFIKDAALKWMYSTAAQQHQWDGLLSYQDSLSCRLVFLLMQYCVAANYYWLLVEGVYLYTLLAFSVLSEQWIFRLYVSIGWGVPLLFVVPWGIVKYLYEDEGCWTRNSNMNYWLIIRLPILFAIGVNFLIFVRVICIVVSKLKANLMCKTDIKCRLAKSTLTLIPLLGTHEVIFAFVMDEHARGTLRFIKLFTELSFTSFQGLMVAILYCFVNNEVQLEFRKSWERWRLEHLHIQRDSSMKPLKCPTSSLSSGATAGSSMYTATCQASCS

- EC50 of cAMP formation in HEK293 cells expressing human GLP-1-R (corrected to a purity of 50%) [1]: 0.17 nM
- EC50 of cAMP formation in HEK293 cells expressing human Glucagon-R (corrected to a purity of 50%) [2]: 0.1 nM
Binder: H-HSQGTFTSDYSLYLDSRRAKDFIEWLERA-NH2 (not fully specified) [L006-0050 (SEQ ID NO: 12)]
